The results in this text go back to the NTF2 design screens of Basanta et al. (2020).

A short description of the data set: protease stability score; higher = more stable; yeast display proteolysis, trypsin and chymotrypsin.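 Further: relative to predicted unfolded state with 0 unfolded-like and 1 meaning tenfold more protease.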
Consider “HESQEHDDRILDLFETLLRTGDWERLFQLADPHVRLRLHYGDKEIHQVGREEVVRMFLWWRERFGVDHFEVHEVRVVDGVNHIDGRLTVNGRNRRTEIVFIVVNGRIKEFEVRHR”, for which the protease stability score stood at 2.24.

As to “HESTEYADYMLKFLSLVESTGNEDLFKRLFDPDVRLVINGVDTHGWESYHEHRKRVDHKEVEHSEIKHVEVQGEKIIVHGILHVRVKIGDKRFSFEIRFHLIVHKFNGKWHITSIEFH”, the protease stability score came to 0.848.

“HETEKLTKEYIREELEVLKTGDEKETRELLDPDVRIEQGEFSTHGWDYATHWLRTFTERVKGAQFEKKTIRVINGRVNIHMLMHFNGREERIDLISVKIDGRWLIKSVHIHIE”: the protease stability score was 0.208.

Take “HETEQRLEHHIKLWFKAFMTGDEELLKFLADPNVRVDDDVNGVRFLNIGMEKLAEWLRKWLRRVPNVKFDLEDVKIFENRTHIDSRLDIDGKEIELHIHLILINGRIQEIRFSVK”: the protease stability score turned out to be 1.49.

Sequence “HETKHLVDKFIELFKHNLETGDWDRLLELADPRTRVHVGDKTLIGMHEFRELHLRLIEKHGIKLNYYVHEVHVQGDKAHVDNEREEDYNGRVVSFRIRMHVEKFDGRWYLTRIEFN” registered a protease stability score of 1.33.

“HEVERIVEESDRHLLNSMLTGNEDELWRLLDPNARLDINGVQSIGRDEAYRVFHELLNHLRLREVDVHEMDVQGDKAHLTFKFNGDFNGKRDYLDFQVNSLKINGRWFLHSSSLI”: the protease stability score is 0.529.

“HEWERLHHEAMEHFLRLQETGNEKTLQELADPDARLHYNGKDYHGRESMLKFWIELGVDHIHLHDFRIQGDKMEIHMDDHQGDKRLHTIIIHRKVNGQWHLQSEKIH”: the protease stability score came to 0.548.

As for “HEYEEEVTKAIEVLLHLLMTGDFDQMLHLADPNYRVDINGQEYIGREWFEVIRDKFKNVKIKDMHIDHVIFIGDKVIIHSREHRQQGDKERTFTVVLYSRKINGQWVHTSVKFS”, the protease stability score was 1.59.

“HEYEEWSEIAMRLWILAERTGDERHIAHLLDPHVRYVFNGVEVIGMELITELVKRRWEQWRVHVEIEDRKFQGNFSKIEGHLRLHVGDKTEERRVEYRMDIVDGRIREISVIIE” gave a protease stability score of 1.37.

“HHDEELSEHMAHNWLEALLTGDEDMLRELADPHVRYRFNGRQEIGWEHLLRFVNEIRIHELEPRHIQIDLVNGQVHVHIEGTIDGRIGDKDDRRRTTIVLNIRKINGKWILESISMEVE” registered a protease stability score of 1.68.

As to “HKEHRDAHELLERWLRSSVTGDEDTLSELLDPNVKIEIGNKHVHGREEVSRHFSERAHRIDHVRLHVDDLYIQGEKVHVDLTLEINVGDWRQTIKVEYVVLKVNGRWRIHTIHER”, the protease stability score turned out to be 0.674.

The sequence “HKLDEITKDMLEIFEKHSQTGDFQSLAKNVDPHARVDWDGRQFHGREDVQEVMIRLGVDHIEFKRIDIQGEWVHMDGQVYVNGRTTRTEFVSLKVNGRWYIHELRVR” had a protease stability score of 0.875.

Consider “HQDDDELKHFLELFIEQHETGDEHRLRKMADPRTRVEINGQEIHGMDQLVRHWLEFRKRMGVDHTHVILEHFHFQGDKVSARLRLIFIVGDKTFETDMNVIVVKVDGKWLIHEVSTR”, for which the protease stability score was 1.22.

“HQEDRLVFALAKDWIDNLETGDEDKMLQRADPRRQLIIDGRTFHGWENTYENMKQIRIEHLEIRDMTVVDGRIHINTHSILIINGRRFETETSIRLVVVNGVIQDVDININ” had a protease stability score of 0.081.

Turning to “HRDEELSEEILRLILEILRTGDEDELRRLIDPHVRVSIGDKEKHGREWYLELVNVAGIKYIELKRIHVIGDKAHFETYVHVDGRDISLQFIILKINGKWFITSIRIETR”, the protease stability score turned out to be 1.4.

In turn, “HRVETEAHHMMKLLEHWLQTGDEEMWKTYADPDVRIDVDGKTLHGRDNFEHVLRMYGIKHRHIRDSHYHFIGDYLHYNLDVEVHFNGKDLKTHFTFQIRKVDGRWELERVHIRVH” came in with a protease stability score of 0.941.

Sequence “HSDEEKSRRATKWFIKIFHTGDEDRFHELADPNTRVIIGDKDFIGREKAVDAIHRIWEHLGIDVYDVEDIRIINGVVEVDTSFHINGRTIKTTTRIEKVNGQWVVDEVHFK” returned a protease stability score of 1.23.

In the case of “HSLEKDAHEAFELFADTVRTGDEKLMQHLIDPNVRFDYNGVDLHGWKDVSRLMIELRIEDVRLTHVHVIGNKVHLDTRIHSHVNGRRIDTEMHVDIEKVNGRWVIRRIEHR”, the protease stability score turned out to be 1.47.

Consider “IEQKEAWDEVYRIFVEAVRTGDWKSFERLLDPHTRIHFENREFHGREALEHDREKYKNMKLEHIEIKDQRVQGDKVIQFSHVVGNIDGRRLRFDIEIQFSKVDGVWTIELVIVR”, for which the protease stability score came out at 1.52.

For the sequence “KDTKRALDELSELELHADETGDWRVKHELLDPHTRIVIGDKTIHGREDMLTLMKKLQEHWRLKTIEIHHTEVVDGRIDADTILVGIVDGVERELRVRLIILKINGRWIYTSIKFD”, the protease stability score is 1.14.

In turn, “KEDEELSSRFMLLMWHLMVTGNWKILEELADPNVRFIDEHHTLHGREEFVRTFKDWFDEIKNMKIHVRDSTVQGEKSNIHGELNFNGKRVDYTFIILFFNGRLHQIELRYH” showed a protease stability score of -0.069.

With “KEDEEYFREVTKNLLELIETGDFDMLTELLDPHMLLDVNGRTFHGWELAVEWYRQHVKKFGIDNIKVTLKHIHIQGNKIHLDVEVEIGDKTERREFVLTKINGRWRFDSVVVR”, the protease stability score is 2.19.

On to “KEDSEIAEDIIRLLNHASSTGDEETFTHLADPNVRIKIGDKESHGREEWSRTLTELRVEFKDMKIRDVDIQGEYVFVEGELRVEITVNGRTIEIHYESHFIMEKVNGRWHVHSVMML”, for which the protease stability score was 0.222.

In turn, “KEEEDIVRHVVEKFIKNLLTGDFHSLMHMADPNVLVNFNGKENIGRELAVKTIERWWKELGVKHFEHFDLHDITIFDGKASLDTRVHGEINGKVHDFKTRIIIQKINGRWTVHSVEFE” yielded a protease stability score of 1.22.

“KEEEEDLKKATEDMMHLLSTGDWDTIYRLADPNTRIEINGREEVGMDLYVDKSMEEFRRLGIDKIHIHLHSVTNVNGKIYIDTRYEFNGVKIRMHIVIEKINGRWLLRTLSVK” showed a protease stability score of 1.52.

“KEEEEEARQAWDLLHNIMKTGDEHQLMSLVDPNYLNIAEGREFHGREVFYHYMHELRVKWEHMHLKDYRVYNGRIRTEEHLVVHYEYGDKHDSLRTDVHLKDVKINGRWRVRHLHII”: the protease stability score was 0.78.

On to “KEEEEFAKHILHMLRYLWETGDEEEFERMADPNARLIQGDKHFHGREEITKSVKELRVRHFEEKHIHYQGEKSLIIGHVDGEINGQRHEIDVIIRLEVVNGKLKRIRIEYR”, for which the protease stability score was determined as 0.239.

In turn, “KEEEEKLERLAELVIELFLTGDWKTLHSLLDPHYRSEIDGRTVHGRESHQTLLEEILRHLRIRRVHIEEYRIIDGVAWIDSRITLEINGRTVDTHMHIHLEFFNGRLHSIRVEIH” displayed a protease stability score of 2.47.

“KEEEELVKKMLDLLVEAWETGDWKLLDHLLDPNVKLEVDGVLHIGREEAVRVMLEFHKRVDHVEVRDRDFRIQGEKVRHEVELRLHQGEFHVITRIEIEVTKVNGRWQMKHIRIE” displayed a protease stability score of 2.56.

For “KEEETHAREVSEANEHLLETGDWRRLSHLLDPNAKITINGRHFHGREFFTELQKRHEDMLGIKHRHIEDSTVVGDKVIIHTYYHVDGKTLDIEIIIVVINGRHERVEWRFK”, the protease stability score amounted to 0.782.

The sequence “KEEEWLAREWLRLWFEAVMTGDEHRLNHMLDPHVRTIVGDYEDVGRERSSELFLEIRLDHMELTSLDVQGDYAHLEIRVDGTIDGKRIETEMRVTLNIVDGRFRTVEHRIS” yielded a protease stability score of 0.755.

Turning to “KEHEEILHHLAELFFENLLTGDWRLLTELMDPSARVHIGEWRSHGREHASRVMLEEFRQLRVRDVKLTDLKVIDGRMEIDTRMRIEVDGREHIHTIHIRIYIYNGRMDEIHLEVR”, the protease stability score came to 0.125.

Regarding “KEHEKFVEDFARLLINIWTTGDEDLFNELADPHVRVNFNGVEHHGRENVIRYIERVLREIRIDHVQTRDWTVIDGVMHIEGHIHIHFDGRQRTHDVIFHIIIWNGKMKNVIVSFR”, the protease stability score turned out to be 1.67.

“KEHNDALELMYHWLIHLWKTGDERDIYELFDPNVRVDVNGRELHGMELVSHIELREMKRLGFKVIHIELTSVRYIGDKIEIDTIFHLHVGEYTERREHHILSYKVDGRWFVKESEVN”: the protease stability score amounted to 1.18.

For “KEKEEIARMMLKELIKTIRTGDPEEWHKLFDPHVLIVIDGREIHGMEEHTRLLRELGIDRIELHTQHERHVSVQGDKVHLDIDVDGMFDGQKRRFHMHIDALKVNGQWVIQYIEIR”, the protease stability score came to 1.96.

Consider “KELDEKVDTAIRIFHDVMLTGDEEKLIKLMDPNTRIRYNGRELHGWESHIKLREEELHELGVERVVHIFHNREIRAYDGVADIKGELEIRFNGRTVRHEFRIKFEKVNGRWVVREIEIH”, for which the protease stability score was 1.31.

Sequence “KELEEHELRLAKDMSKVIETGDEERLRRLADPHVKVHINGKTRHGREWMSHLLNLMLTELRVRHLHIKDVFEVNGVAHSETELDGEVNGREIELHTEIILVVVNGKIQRLEIRIE” displayed a protease stability score of 1.06.

The sequence “KELERDSREATHTFLRDIKTGDFESLHRLADPTTRMHIGDKEFHGWELLIHVIAEFLRKVPNMRTTLRDERVQGEKVEVRVDIHYNGQDRHIELEIHKVNGKWWIKVMEFE” gave a protease stability score of 0.88.

In turn, “KEQDHLIKNVLERLFRAFHTGNEEELEKLIDPHAMIIIGDKHFHGREEVLHTLVNLVNEIRFRDMELKDSRLFDGRVNIDLDEHIRQGDKHHLYEVHLILYKFDGRWFIRKFEIR” registered a protease stability score of 1.46.

The sequence “KEREELLKTAADLMYHIWHTGDFEKLFKNVDPHVKINVGDKTYVGREQMHKIFKELKERLGFDVSSLEHRHLDMQGDFIFNELHVRLHQGDFEIQSWIHVIIYKVNGKWVVHEIKLHWD” gave a protease stability score of 1.6.

On to “KESEEDARKFWEKMVEDNRTGDWDSFEKLVDPHVKMLFNGREYHGRDELLDLFRHIRFKDHEIHDMKVIGNKVRMDTRVHLNVNGREISVDTHLVVEKINGRWVLHSVLFH”, for which the protease stability score worked out at 1.62.

As for “KHEEDEWKRMIDIVLHMLKTGNFELLERLADPHARSHIDGVRIHGREKFVEILFEVWHFYKNLTISINHIDVFNGVIVIHGRLDINGRQVEVHIVVTKINGKWFLESHSEIFH”, the protease stability score came to 0.572.

As to “LEDEEMLEEVDKRLVHAFLTGDFNTIERMLDPDTKVRINGRESIGRENVAKVLHEERRHMRLDIIEIRRIRLVGEFIHSDTRLDININGRRIKFTFRIIVLKINGQWIVESLEID”, the protease stability score was found to be 2.06.

In turn, “LEEEEEAKTMIEHHFDNFRTGDEDLIHKLADPHVRVLYNGKILHGREKLVEMIHKLVEKMGVDHLEYRHRDMKIWDGQVEVHGERIIRQGDKTYRFDVILFVLKVDGRWVIKEVRVQ” gave a protease stability score of 1.47.

The sequence “LEEEEETKEMNDKMRHVMETGDEDSFRKLADPHVRVDINGREFHGMDNAAEIMSHLRIHKFHVHDTRNINGKVQVESRLTRIIDGKKQHVRTEWIIVKIDGQWIFREWIVK” came in with a protease stability score of 0.58.

Sequence “LEEEEIARELLKRILDMLFTGDEEVLSELLDPNVRVDFNGVEIHGREHVREWMHHLRFRHLHLRDFRVQGDKLHLDTETRGEIDGQEVRIETRLIARKVDGRWILKSREFV” showed a protease stability score of 1.53.

Sequence “LEEKDEVHHIVDRLFKVLMTGDFEILRHLLDPDDRLKIDINGRQIDLHGREEVVHWVIHELRELRIELRVKRVHHTENHYVADTRLHIRQGDKEFVHETEWRILIIDGKNKEWRIIVH” returned a protease stability score of 1.38.
